Read-outs that look alike come from different tables or passages of the source.
Assays:
[1] = target: Env (gp120) of HIV-1 strain CNE58 (HIV-1)
[2] = target: Env (gp120) of HIV-1 strain TRO.11 (HIV-1)
[3] = target: Env (gp120) of HIV-1 strain Q769.d22 (HIV-1)
[4] = target: Env (gp120) of HIV-1 strain RHPA4259.7 (HIV-1)
[5] = target: Env (gp120) of HIV-1 strain 6540.v4.c1 (HIV-1)
[6] = target: Env (gp120) of HIV-1 strain 3301.v1.c24 (HIV-1)
[7] = target: Env (gp120) of HIV-1 strain 3817.v2.c59 (HIV-1)
[8] = target: Env (gp120) of HIV-1 strain 0330.v4.c3 (HIV-1)
[9] = target: Env (gp120) of HIV-1 strain 1056_10_TA11_1826 (HIV-1)
[10] = target: Env (gp120) of HIV-1 strain Du156.12 (HIV-1)
[11] = target: Env (gp120) of HIV-1 strain CNE30 (HIV-1)
[12] = target: Env (gp120) of HIV-1 strain CAAN5342.A2 (HIV-1)
[13] = target: Env (gp120) of HIV-1 strain ZM247v1(Rev-) (HIV-1)
[14] = target: Env (gp120) of HIV-1 strain ZM109F.PB4 (HIV-1)
[15] = target: Env (gp120) of HIV-1 strain T251-18 (HIV-1)
[16] = target: Env (gp120) of HIV-1 strain X1254_c3 (HIV-1)
[17] = target: Env (gp120) of HIV-1 strain 3415.v1.c1 (HIV-1)
[18] = target: Env (gp120) of HIV-1 strain Q259.d2.17 (HIV-1)
[19] = target: Env (gp120) of HIV-1 strain WEAU_d15_410_787 (HIV-1)
[20] = target: Env (gp120) of HIV-1 strain PVO.4 (HIV-1)
[21] = target: Env (gp120) of HIV-1 strain X1193_c1 (HIV-1)
[22] = target: Env (gp120) of HIV-1 strain 1054_07_TC4_1499 (HIV-1)
[23] = target: Env (gp120) of HIV-1 strain 211-9 (HIV-1)
[24] = target: Env (gp120) of HIV-1 strain AC10.0.29 (HIV-1)
[25] = target: Env (gp120) of HIV-1 strain 6811.v7.c18 (HIV-1)
[26] = target: Env (gp120) of HIV-1 strain 6545.v4.c1 (HIV-1)
[27] = target: Env (gp120) of HIV-1 strain ZM249M.PL1 (HIV-1)
[28] = target: Env (gp120) of HIV-1 strain 3103.v3.c10 (HIV-1)
[29] = target: Env (gp120) of HIV-1 strain SC422661.8 (HIV-1)
[30] = target: Env (gp120) of HIV-1 strain C1080.c03 (HIV-1)
[31] = target: Env (gp120) of HIV-1 strain 62357_14_D3_4589 (HIV-1)
[32] = target: Env (gp120) of HIV-1 strain ZM135M.PL10a (HIV-1)
[33] = target: Env (gp120) of HIV-1 strain 703357.C02 (HIV-1)
[34] = target: Env (gp120) of HIV-1 strain C3347.c11 (HIV-1)
[35] = target: Env (gp120) of HIV-1 strain CNE53 (HIV-1)
[36] = target: Env (gp120) of HIV-1 strain R1166.c01 (HIV-1)
[37] = target: Env (gp120) of HIV-1 strain Ce0682_E4 (HIV-1)
[38] = target: Env (gp120) of HIV-1 strain 620345.c01 (HIV-1)
[39] = target: Env (gp120) of HIV-1 strain Ce2060_G9 (HIV-1)
[40] = target: Env (gp120) of HIV-1 strain 89-F1_2_25 (HIV-1)
[41] = target: Env (gp120) of HIV-1 strain ZM233M.PB6 (HIV-1)
[42] = target: Env (gp120) of HIV-1 strain 928-28 (HIV-1)
[43] = target: Env (gp120) of HIV-1 strain ZM197M.PB7 (HIV-1)
[44] = target: Env (gp120) of HIV-1 strain Q23.17 (HIV-1)
[45] = target: Env (gp120) of HIV-1 strain 1006_11_C3_1601 (HIV-1)
[46] = target: Env (gp120) of HIV-1 strain TRO.11 (HIV-1); remark: listed apart in the source
[47] = target: Env (gp120) of HIV-1 strain CAP45.2.00.G3 (HIV-1)
[48] = target: Env (gp120) of HIV-1 strain CAP210.2.00.E8 (HIV-1)
[49] = target: Env (gp120) of HIV-1 strain AC10.0.29 (HIV-1); remark: listed apart in the source
[50] = target: Env (gp120) of HIV-1 strain SC422661.8 (HIV-1); remark: listed apart in the source

NIH45-46 IgG (antibody) gave a neutralization IC50 [1] of 0.43 µg/mL, a neutralization IC50 [2] of 1.61 µg/mL and a neutralization IC50 [3] of 0.009 µg/mL. For the same substance, the neutralization IC50 [4] was 0.017 µg/mL, the neutralization IC50 [5] was greater than 50 µg/mL and the neutralization IC50 [6] was 0.009 µg/mL. The neutralization IC50 [7] was greater than 50 µg/mL, the neutralization IC50 [8] was 0.09 µg/mL and the neutralization IC50 [9] was 0.094 µg/mL. The neutralization IC50 [10] was 0.02 µg/mL, the neutralization IC50 [11] was 0.309 µg/mL and the neutralization IC50 [12] was 0.15 µg/mL. It also gave a neutralization IC50 [13] of 2.94 µg/mL, a neutralization IC50 [14] of 0.095 µg/mL and a neutralization IC50 [15] of 1.35 µg/mL. The neutralization IC50 [16] was 0.032 µg/mL, the neutralization IC50 [17] was 0.022 µg/mL and the neutralization IC50 [18] was 0.043 µg/mL. For the same substance, the neutralization IC50 [19] was 0.005 µg/mL, the neutralization IC50 [20] was 0.12 µg/mL and the neutralization IC50 [21] was 0.021 µg/mL. It also gave a neutralization IC50 [22] of 0.113 µg/mL, a neutralization IC50 [23] greater than 50 µg/mL and a neutralization IC50 [24] of 0.56 µg/mL. The neutralization IC50 [25] was 0.035 µg/mL, the neutralization IC50 [26] was greater than 50 µg/mL and the neutralization IC50 [27] was 0.017 µg/mL. The neutralization IC50 [28] was 1.77 µg/mL, the neutralization IC50 [29] was 0.06 µg/mL and the neutralization IC50 [30] was 2.48 µg/mL. For the same substance, the neutralization IC50 [31] was 0.06 µg/mL, the neutralization IC50 [32] was 0.59 µg/mL and the neutralization IC50 [33] was 19.2 µg/mL. For the same substance, the neutralization IC50 [34] was 0.029 µg/mL, the neutralization IC50 [35] was 0.008 µg/mL and the neutralization IC50 [36] was 0.31 µg/mL. The neutralization IC50 [37] was 0.054 µg/mL, the neutralization IC50 [38] was greater than 50 µg/mL and the neutralization IC50 [39] was 0.058 µg/mL. It also gave a neutralization IC50 [40] greater than 50 µg/mL, a neutralization IC50 [41] of 2.5 µg/mL and a neutralization IC50 [42] of 0.23 µg/mL. It also gave a neutralization IC50 [43] of 0.15 µg/mL, a neutralization IC50 [44] of 0.14 µg/mL and a neutralization IC50 [45] of 0.027 µg/mL. The neutralization IC50 [46] was 1 µg/mL, the neutralization IC50 [47] was greater than 50 µg/mL and the neutralization IC50 [48] was greater than 50 µg/mL.
For NIH45-46^G54F IgG (antibody), the neutralization IC50 [1] was 0.04 µg/mL, the neutralization IC50 [2] was 0.11 µg/mL and the neutralization IC50 [3] was 0.005 µg/mL. For the same substance, the neutralization IC50 [4] was 0.005 µg/mL, the neutralization IC50 [5] was greater than 50 µg/mL and the neutralization IC50 [6] was 0.001 µg/mL. For the same substance, the neutralization IC50 [7] was greater than 50 µg/mL, the neutralization IC50 [8] was 0.04 µg/mL and the neutralization IC50 [9] was 0.064 µg/mL. It also gave a neutralization IC50 [10] of less than 0.001 µg/mL, a neutralization IC50 [11] of 0.1 µg/mL and a neutralization IC50 [12] of 0.1 µg/mL. For the same substance, the neutralization IC50 [13] was 0.28 µg/mL, the neutralization IC50 [14] was 0.022 µg/mL and the neutralization IC50 [15] was 0.41 µg/mL. It also gave a neutralization IC50 [16] of 0.011 µg/mL, a neutralization IC50 [17] of less than 0.001 µg/mL and a neutralization IC50 [18] of 0.009 µg/mL. The neutralization IC50 [19] was less than 0.001 µg/mL, the neutralization IC50 [20] was 0.07 µg/mL and the neutralization IC50 [21] was less than 0.001 µg/mL. The neutralization IC50 [22] was 0.076 µg/mL, the neutralization IC50 [23] was greater than 50 µg/mL and the neutralization IC50 [24] was 0.24 µg/mL. For the same substance, the neutralization IC50 [25] was 0.017 µg/mL, the neutralization IC50 [26] was greater than 50 µg/mL and the neutralization IC50 [27] was 0.004 µg/mL. It also gave a neutralization IC50 [28] of 0.37 µg/mL, a neutralization IC50 [29] of 0.04 µg/mL and a neutralization IC50 [30] of 0.36 µg/mL. It also gave a neutralization IC50 [31] of 0.04 µg/mL, a neutralization IC50 [32] of 0.13 µg/mL and a neutralization IC50 [33] of 7.91 µg/mL. For the same substance, the neutralization IC50 [34] was 0.015 µg/mL, the neutralization IC50 [35] was 0.005 µg/mL and the neutralization IC50 [36] was 0.4 µg/mL. The neutralization IC50 [37] was 0.011 µg/mL, the neutralization IC50 [38] was greater than 50 µg/mL and the neutralization IC50 [39] was 0.022 µg/mL. It also gave a neutralization IC50 [40] greater than 50 µg/mL, a neutralization IC50 [41] of 0.22 µg/mL and a neutralization IC50 [42] of 0.11 µg/mL. For the same substance, the neutralization IC50 [43] was 0.09 µg/mL, the neutralization IC50 [44] was 0.03 µg/mL and the neutralization IC50 [45] was 0.003 µg/mL. For the same substance, the neutralization IC50 [46] was 0.08 µg/mL, the neutralization IC50 [47] was greater than 50 µg/mL and the neutralization IC50 [49] was 0.3 µg/mL. It also gave a neutralization IC50 [50] of 0.02 µg/mL and a neutralization IC50 [48] greater than 50 µg/mL.
NIH45-46^G54W IgG (antibody) showed a neutralization IC50 [1] of 0.02 µg/mL, a neutralization IC50 [2] of 0.04 µg/mL and a neutralization IC50 [3] of less than 0.001 µg/mL. It also gave a neutralization IC50 [4] of less than 0.001 µg/mL, a neutralization IC50 [5] greater than 50 µg/mL and a neutralization IC50 [6] of less than 0.001 µg/mL. For the same substance, the neutralization IC50 [7] was greater than 50 µg/mL, the neutralization IC50 [8] was 0.03 µg/mL and the neutralization IC50 [9] was 0.024 µg/mL. For the same substance, the neutralization IC50 [10] was less than 0.001 µg/mL, the neutralization IC50 [11] was 0.052 µg/mL and the neutralization IC50 [12] was 0.07 µg/mL. The neutralization IC50 [13] was 0.32 µg/mL, the neutralization IC50 [14] was 0.002 µg/mL and the neutralization IC50 [15] was 0.26 µg/mL. For the same substance, the neutralization IC50 [16] was 0.002 µg/mL, the neutralization IC50 [17] was less than 0.001 µg/mL and the neutralization IC50 [18] was less than 0.001 µg/mL. The neutralization IC50 [19] was less than 0.001 µg/mL, the neutralization IC50 [20] was 0.05 µg/mL and the neutralization IC50 [21] was less than 0.001 µg/mL. For the same substance, the neutralization IC50 [22] was 0.04 µg/mL, the neutralization IC50 [23] was 16.4 µg/mL and the neutralization IC50 [24] was 0.13 µg/mL. It also gave a neutralization IC50 [25] of less than 0.001 µg/mL, a neutralization IC50 [26] of 18.9 µg/mL and a neutralization IC50 [27] of 0.002 µg/mL. For the same substance, the neutralization IC50 [28] was 0.2 µg/mL, the neutralization IC50 [29] was 0.02 µg/mL and the neutralization IC50 [30] was 0.2 µg/mL. For the same substance, the neutralization IC50 [31] was 0.02 µg/mL, the neutralization IC50 [32] was 0.04 µg/mL and the neutralization IC50 [33] was 3.43 µg/mL. The neutralization IC50 [34] was less than 0.001 µg/mL, the neutralization IC50 [35] was less than 0.001 µg/mL and the neutralization IC50 [36] was 0.13 µg/mL. For the same substance, the neutralization IC50 [37] was 0.01 µg/mL, the neutralization IC50 [38] was greater than 50 µg/mL and the neutralization IC50 [39] was 0.005 µg/mL. For the same substance, the neutralization IC50 [40] was greater than 50 µg/mL, the neutralization IC50 [41] was 0.02 µg/mL and the neutralization IC50 [42] was 0.06 µg/mL. For the same substance, the neutralization IC50 [43] was 0.04 µg/mL, the neutralization IC50 [44] was 0.01 µg/mL and the neutralization IC50 [45] was less than 0.001 µg/mL. For the same substance, the neutralization IC50 [46] was 0.09 µg/mL, the neutralization IC50 [47] was 6.6 µg/mL and the neutralization IC50 [49] was 0.2 µg/mL. It also gave a neutralization IC50 [50] of 0.03 µg/mL and a neutralization IC50 [48] of 41 µg/mL.

From patent US20200165325A1
